Assay results reported in patent publication US20110201130A1.

Key:
[1] = biological target: human B-type natriuretic peptide (human); experiment: sandwich CMIA, capture 106.3 AM1, hBNP 30 pg/mL (8.67 pM)
[2] = biological target: human B-type natriuretic peptide (human); experiment: sandwich CMIA, capture BNP 3-631-436 ms, hBNP 0 pg/mL (blank)
[3] = biological target: human B-type natriuretic peptide (human); experiment: sandwich CMIA, capture BNP 3-631-436 ms, hBNP 150 pg/mL (43.3 pM)
[4] = biological target: human pro B-type natriuretic peptide (human); experiment: sandwich CMIA, capture 106.3AM1, proBNP spike 103 pg/mL, read off hBNP curve
[5] = biological target: human B-type natriuretic peptide (human); experiment: sandwich CMIA, capture BNP 3-631-436 ms, hBNP 1000 pg/mL (288.7 pM)
[6] = biological target: human pro B-type natriuretic peptide (human); experiment: sandwich CMIA, capture BNP 3-631-436 ms, proBNP spike 6872 pg/mL, read off hBNP curve
[7] = biological target: human pro B-type natriuretic peptide (human); experiment: sandwich CMIA, capture 106.3AM1, proBNP spike 515 pg/mL, read off hBNP curve
[8] = biological target: human B-type natriuretic peptide (human); experiment: sandwich CMIA, capture 106.3 AM1, hBNP 1000 pg/mL (288.7 pM)
[9] = biological target: human pro B-type natriuretic peptide (human); experiment: sandwich CMIA, capture 106.3AM1, proBNP spike 1031 pg/mL, read off hBNP curve
[10] = biological target: human B-type natriuretic peptide (human); experiment: sandwich CMIA, capture BNP 3-631-436 ms, hBNP 300 pg/mL (86.6 pM)
[11] = biological target: human pro B-type natriuretic peptide (human); experiment: sandwich CMIA, capture BNP 3-631-436 ms, proBNP spike 3436 pg/mL, read off hBNP curve
[12] = biological target: human B-type natriuretic peptide (human); experiment: sandwich CMIA, capture BNP 3-631-436 ms, hBNP 2000 pg/mL (577.4 pM)
[13] = biological target: human B-type natriuretic peptide (human); experiment: sandwich CMIA, capture 106.3 AM1, hBNP 300 pg/mL (86.6 pM)
[14] = biological target: human pro B-type natriuretic peptide (human); experiment: sandwich CMIA, capture BNP 3-631-436 ms, proBNP spike 103 pg/mL, read off hBNP curve
[15] = biological target: human pro B-type natriuretic peptide (human); experiment: sandwich CMIA, capture BNP 3-631-436 ms, proBNP spike 1031 pg/mL, read off hBNP curve
[16] = biological target: human pro B-type natriuretic peptide (human); experiment: sandwich CMIA, capture 106.3AM1, proBNP spike 3436 pg/mL, read off hBNP curve
[17] = biological target: human B-type natriuretic peptide (human); experiment: sandwich CMIA, capture 106.3 AM1, hBNP 2000 pg/mL (577.4 pM)
[18] = biological target: human pro B-type natriuretic peptide (human); experiment: sandwich CMIA, capture BNP 3-631-436 ms, proBNP spike 515 pg/mL, read off hBNP curve
[19] = biological target: human pro B-type natriuretic peptide (human); experiment: sandwich CMIA, capture 106.3AM1, proBNP spike 6872 pg/mL, read off hBNP curve
[20] = biological target: human B-type natriuretic peptide (human); experiment: sandwich CMIA, capture BNP 3-631-436 ms, hBNP 30 pg/mL (8.67 pM)
[21] = biological target: human B-type natriuretic peptide (human); experiment: sandwich CMIA, capture 106.3 AM1, hBNP 0 pg/mL (blank)
[22] = biological target: human B-type natriuretic peptide (human); experiment: sandwich CMIA, capture 106.3 AM1, hBNP 150 pg/mL (43.3 pM)

human B-type natriuretic peptide (human), sequence (peptide, as listed by the source): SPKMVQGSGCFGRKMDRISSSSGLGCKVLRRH
human pro B-type natriuretic peptide (human), sequence (chain, as listed by the source): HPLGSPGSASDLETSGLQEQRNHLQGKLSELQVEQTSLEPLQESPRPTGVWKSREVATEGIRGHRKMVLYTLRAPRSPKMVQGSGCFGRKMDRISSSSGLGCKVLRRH

- RLU [1]: 1030 RLU
- RLU [2]: 803 RLU
- RLU [3]: 4690 RLU
- Readback [4]: 117 pg/mL
- Recovery [4]: 114%
- RLU [5]: 83500 RLU
- Readback [6]: 895 pg/mL
- Recovery [6]: 17.9%
- Readback [7]: 190 pg/mL
- Recovery [7]: 36.8%
- RLU [8]: 65500 RLU
- Readback [9]: 456 pg/mL
- Recovery [9]: 44.2%
- RLU [10]: 11900 RLU
- Readback [11]: 482 pg/mL
- Recovery [11]: 19.3%
- RLU [12]: 270000 RLU
- RLU [13]: 8760 RLU
- Readback [14]: -5.3 pg/mL
- Recovery [14]: -7%
- Readback [15]: 111 pg/mL
- Recovery [15]: 14.8%
- Readback [16]: 1370 pg/mL
- Recovery [16]: 39.7%
- RLU [17]: 223000 RLU
- Readback [18]: 40.8 pg/mL
- Recovery [18]: 10.9%
- Readback [19]: 2830 pg/mL
- Recovery [19]: 41.2%
- RLU [20]: 1340 RLU
- RLU [21]: 768 RLU
- RLU [22]: 3850 RLU
Substance: monoclonal antibody BC203
